Source: patent publication US20140303084A1 (Biogen, published 2014)
Square brackets hold non-standard residues; d marks the D form. Ends that are not written are not given here. Orn = NCCC[C@H](N)C(=O)O; Dab = NCC[C@H](N)C(=O)O; Dap = NC[C@H](N)C(=O)O

Biological target: human Factor IXa (human, UniProt P00740 47-191; P00740 227-461)
Assay: cell-based or functional assay

B1: RRAPGKLTCLASYAWCFWTGIA-CONH2 (peptide)
peptide: RRAPGKLTCLASYAWCFWTGIA-NH2
modifications: cysteine pairing not given here
- EC50 [µM], FXa generation assay: > 20 µM

B2: RRAPGKLT-Dap-LASY-Asp-WLFWTGIA-COOH (peptide)
peptide: RRAPGKLT[Dap]LASYDWLFWTGIA-OH
modifications: N-terminus assumed
SMILES: CC[C@H](C)[C@H](NC(=O)CNC(=O)[C@@H](NC(=O)[C@H](Cc1c[nH]c2ccccc12)NC(=O)[C@H](Cc1ccccc1)NC(=O)[C@H](CC(C)C)NC(=O)[C@H](Cc1c[nH]c2ccccc12)NC(=O)[C@H](CC(=O)O)NC(=O)[C@H](Cc1ccc(O)cc1)NC(=O)[C@H](CO)NC(=O)[C@H](C)NC(=O)[C@H](CC(C)C)NC(=O)[C@H](CN)NC(=O)[C@@H](NC(=O)[C@H](CC(C)C)NC(=O)[C@H](CCCCN)NC(=O)CNC(=O)[C@@H]1CCCN1C(=O)[C@H](C)NC(=O)[C@H](CCCNC(=N)N)NC(=O)[C@@H](N)CCCNC(=N)N)[C@@H](C)O)[C@@H](C)O)C(=O)N[C@@H](C)C(=O)O
- EC50 [µM], FXa generation assay: > 10 µM

B3: RRAPGCLTALASYAWLCWTGIA-CONH2 (peptide)
peptide: RRAPGCLTALASYAWLCWTGIA-NH2
modifications: cysteine pairing not given here
- EC50 [µM], FXa generation assay: > 1 µM

B4: RRAPGKLCALASYACLFWTGIA-CONH2 (peptide)
peptide: RRAPGKLCALASYACLFWTGIA-NH2
modifications: cysteine pairing not given here
- EC50 [µM], FXa generation assay: > 10 µM

B5: RRAPGKLT-Lys-LASY-Asp-WLFWTGIA-COOH (peptide)
peptide: RRAPGKLTKLASYDWLFWTGIA-OH
- EC50 [µM], FXa generation assay: > 10 µM

B6: RRAPGKLT-Lys-LASY-Glu-WLFWTGIA-COOH (peptide)
peptide: RRAPGKLTKLASYEWLFWTGIA-OH
- EC50 [µM], FXa generation assay: < 0.5 µM

B7: RRAPGCLTALASYCWLFWTGIA-COOH (peptide)
peptide: RRAPGCLTALASYCWLFWTGIA-OH
modifications: cysteine pairing not given here
- EC50 [µM], FXa generation assay: > 1 µM

B8: RRAPGKLTCLASYAWCFWTGIA-COOH (peptide)
peptide: RRAPGKLTCLASYAWCFWTGIA-OH
modifications: cysteine pairing not given here
- EC50 [µM], FXa generation assay: > 1 µM

B9: RRAPGKLCALASYCWLFWTGIA-CONH2 (peptide)
peptide: RRAPGKLCALASYCWLFWTGIA-NH2
modifications: cysteine pairing not given here
- EC50 [µM], FXa generation assay: > 1 µM

B10: RRAPGKLT-Orn-LASY-Asp-WLFWTGIA-COOH (peptide)
peptide: RRAPGKLT[Orn]LASYDWLFWTGIA-OH
modifications: N-terminus assumed
SMILES: CC[C@H](C)[C@H](NC(=O)CNC(=O)[C@@H](NC(=O)[C@H](Cc1c[nH]c2ccccc12)NC(=O)[C@H](Cc1ccccc1)NC(=O)[C@H](CC(C)C)NC(=O)[C@H](Cc1c[nH]c2ccccc12)NC(=O)[C@H](CC(=O)O)NC(=O)[C@H](Cc1ccc(O)cc1)NC(=O)[C@H](CO)NC(=O)[C@H](C)NC(=O)[C@H](CC(C)C)NC(=O)[C@H](CCCN)NC(=O)[C@@H](NC(=O)[C@H](CC(C)C)NC(=O)[C@H](CCCCN)NC(=O)CNC(=O)[C@@H]1CCCN1C(=O)[C@H](C)NC(=O)[C@H](CCCNC(=N)N)NC(=O)[C@@H](N)CCCNC(=N)N)[C@@H](C)O)[C@@H](C)O)C(=O)N[C@@H](C)C(=O)O
- EC50 [µM], FXa generation assay: > 1 µM

B11: RRAPGKLCALASYACLFWTGIA-COOH (peptide)
peptide: RRAPGKLCALASYACLFWTGIA-OH
modifications: cysteine pairing not given here
- EC50 [µM], FXa generation assay: > 10 µM

B12: RRAPGKCTALASYCWLFWTGIA-CONH2 (peptide)
peptide: RRAPGKCTALASYCWLFWTGIA-NH2
modifications: cysteine pairing not given here
- EC50 [µM], FXa generation assay: > 1 µM

B13: RRAPGKCTALASYAWCFWTGIA-COOH (peptide)
peptide: RRAPGKCTALASYAWCFWTGIA-OH
modifications: cysteine pairing not given here
- EC50 [µM], FXa generation assay: > 1 µM

B14: RRAPGCLTALASYCWLFWTGIA-CONH2 (peptide)
peptide: RRAPGCLTALASYCWLFWTGIA-NH2
modifications: cysteine pairing not given here
- EC50 [µM], FXa generation assay: > 1 µM

B15: RRAPGKLTCLASYAWLCWTGIA-CONH2 (peptide)
peptide: RRAPGKLTCLASYAWLCWTGIA-NH2
modifications: cysteine pairing not given here
- EC50 [µM], FXa generation assay: > 10 µM

B16: RRAPGKCTALASYAWCFWTGIA-CONH2 (peptide)
peptide: RRAPGKCTALASYAWCFWTGIA-NH2
modifications: cysteine pairing not given here
- EC50 [µM], FXa generation assay: > 1 µM

B17: RRAPGKLT-Asp-LASY-Dap-WLFWTGIA-COOH (peptide)
peptide: RRAPGKLTDLASY[Dap]WLFWTGIA-OH
modifications: N-terminus assumed
SMILES: CC[C@H](C)[C@H](NC(=O)CNC(=O)[C@@H](NC(=O)[C@H](Cc1c[nH]c2ccccc12)NC(=O)[C@H](Cc1ccccc1)NC(=O)[C@H](CC(C)C)NC(=O)[C@H](Cc1c[nH]c2ccccc12)NC(=O)[C@H](CN)NC(=O)[C@H](Cc1ccc(O)cc1)NC(=O)[C@H](CO)NC(=O)[C@H](C)NC(=O)[C@H](CC(C)C)NC(=O)[C@H](CC(=O)O)NC(=O)[C@@H](NC(=O)[C@H](CC(C)C)NC(=O)[C@H](CCCCN)NC(=O)CNC(=O)[C@@H]1CCCN1C(=O)[C@H](C)NC(=O)[C@H](CCCNC(=N)N)NC(=O)[C@@H](N)CCCNC(=N)N)[C@@H](C)O)[C@@H](C)O)C(=O)N[C@@H](C)C(=O)O
- EC50 [µM], FXa generation assay: > 1 µM

B18: RRAPGKLTCLASYAWLCWTGIA-COOH (peptide)
peptide: RRAPGKLTCLASYAWLCWTGIA-OH
modifications: cysteine pairing not given here
- EC50 [µM], FXa generation assay: > 10 µM

B19: RRAPGKLT-Asp-LASY-Lys-WLFWTGIA-COOH (peptide)
peptide: RRAPGKLTDLASYKWLFWTGIA-OH
- EC50 [µM], FXa generation assay: < 0.5 µM

B20: RRAPGKLT-Lys-LASY-Asp-WLFWTGIA-CONH2 (peptide)
peptide: RRAPGKLTKLASYDWLFWTGIA-NH2
- EC50 [µM], FXa generation assay: > 1 µM

B21: RRAPGKLT-Asp-LASY-Orn-WLFWTGIA-COOH (peptide)
peptide: RRAPGKLTDLASY[Orn]WLFWTGIA-OH
modifications: N-terminus assumed
SMILES: CC[C@H](C)[C@H](NC(=O)CNC(=O)[C@@H](NC(=O)[C@H](Cc1c[nH]c2ccccc12)NC(=O)[C@H](Cc1ccccc1)NC(=O)[C@H](CC(C)C)NC(=O)[C@H](Cc1c[nH]c2ccccc12)NC(=O)[C@H](CCCN)NC(=O)[C@H](Cc1ccc(O)cc1)NC(=O)[C@H](CO)NC(=O)[C@H](C)NC(=O)[C@H](CC(C)C)NC(=O)[C@H](CC(=O)O)NC(=O)[C@@H](NC(=O)[C@H](CC(C)C)NC(=O)[C@H](CCCCN)NC(=O)CNC(=O)[C@@H]1CCCN1C(=O)[C@H](C)NC(=O)[C@H](CCCNC(=N)N)NC(=O)[C@@H](N)CCCNC(=N)N)[C@@H](C)O)[C@@H](C)O)C(=O)N[C@@H](C)C(=O)O
- EC50 [µM], FXa generation assay: < 0.5 µM

B22: RRAPGKLT-Asp-LASY-Dab-WLFWTGIA-COOH (peptide)
peptide: RRAPGKLTDLASY[Dab]WLFWTGIA-OH
modifications: N-terminus assumed
SMILES: CC[C@H](C)[C@H](NC(=O)CNC(=O)[C@@H](NC(=O)[C@H](Cc1c[nH]c2ccccc12)NC(=O)[C@H](Cc1ccccc1)NC(=O)[C@H](CC(C)C)NC(=O)[C@H](Cc1c[nH]c2ccccc12)NC(=O)[C@H](CCN)NC(=O)[C@H](Cc1ccc(O)cc1)NC(=O)[C@H](CO)NC(=O)[C@H](C)NC(=O)[C@H](CC(C)C)NC(=O)[C@H](CC(=O)O)NC(=O)[C@@H](NC(=O)[C@H](CC(C)C)NC(=O)[C@H](CCCCN)NC(=O)CNC(=O)[C@@H]1CCCN1C(=O)[C@H](C)NC(=O)[C@H](CCCNC(=N)N)NC(=O)[C@@H](N)CCCNC(=N)N)[C@@H](C)O)[C@@H](C)O)C(=O)N[C@@H](C)C(=O)O
- EC50 [µM], FXa generation assay: > 10 µM

B23: RRAPGKLT-Asp-LASY-Lys-WLFWTGIA-CONH2 (peptide)
peptide: RRAPGKLTDLASYKWLFWTGIA-NH2
- EC50 [µM], FXa generation assay: < 0.5 µM

B24: RRAPGCLTALASYAWLCWTGIA-COOH (peptide)
peptide: RRAPGCLTALASYAWLCWTGIA-OH
modifications: cysteine pairing not given here
- EC50 [µM], FXa generation assay: > 20 µM

B25: RRAPGKLT-Asp-LASY-Orn-WLFWTGIA-CONH2 (peptide)
peptide: RRAPGKLTDLASY[Orn]WLFWTGIA-NH2
modifications: N-terminus assumed
SMILES: CC[C@H](C)[C@H](NC(=O)CNC(=O)[C@@H](NC(=O)[C@H](Cc1c[nH]c2ccccc12)NC(=O)[C@H](Cc1ccccc1)NC(=O)[C@H](CC(C)C)NC(=O)[C@H](Cc1c[nH]c2ccccc12)NC(=O)[C@H](CCCN)NC(=O)[C@H](Cc1ccc(O)cc1)NC(=O)[C@H](CO)NC(=O)[C@H](C)NC(=O)[C@H](CC(C)C)NC(=O)[C@H](CC(=O)O)NC(=O)[C@@H](NC(=O)[C@H](CC(C)C)NC(=O)[C@H](CCCCN)NC(=O)CNC(=O)[C@@H]1CCCN1C(=O)[C@H](C)NC(=O)[C@H](CCCNC(=N)N)NC(=O)[C@@H](N)CCCNC(=N)N)[C@@H](C)O)[C@@H](C)O)C(=O)N[C@@H](C)C(N)=O
- EC50 [µM], FXa generation assay: < 0.5 µM

B26: RRAPGKLT-Orn-LASY-Asp-WLFWTGIA-CONH2 (peptide)
peptide: RRAPGKLT[Orn]LASYDWLFWTGIA-NH2
modifications: N-terminus assumed
SMILES: CC[C@H](C)[C@H](NC(=O)CNC(=O)[C@@H](NC(=O)[C@H](Cc1c[nH]c2ccccc12)NC(=O)[C@H](Cc1ccccc1)NC(=O)[C@H](CC(C)C)NC(=O)[C@H](Cc1c[nH]c2ccccc12)NC(=O)[C@H](CC(=O)O)NC(=O)[C@H](Cc1ccc(O)cc1)NC(=O)[C@H](CO)NC(=O)[C@H](C)NC(=O)[C@H](CC(C)C)NC(=O)[C@H](CCCN)NC(=O)[C@@H](NC(=O)[C@H](CC(C)C)NC(=O)[C@H](CCCCN)NC(=O)CNC(=O)[C@@H]1CCCN1C(=O)[C@H](C)NC(=O)[C@H](CCCNC(=N)N)NC(=O)[C@@H](N)CCCNC(=N)N)[C@@H](C)O)[C@@H](C)O)C(=O)N[C@@H](C)C(N)=O
- EC50 [µM], FXa generation assay: > 10 µM

B27: RRAPGKLTCLASYACLFWTGIA-CONH2 (peptide)
peptide: RRAPGKLTCLASYACLFWTGIA-NH2
modifications: cysteine pairing not given here
- EC50 [µM], FXa generation assay: > 1 µM
